Measurements: patent US8153597B2, “Modulators of the ABC transporter family and methods for their use” (priority 2003, dated 2012)
Read-outs that look alike come from different tables or passages of the source.

What was measured:
[1] = system: CFTR-mediated Cl− secretion; test: Ussing chamber: CFTR-mediated Cl− secretion (Isc) across polarized CFBE41o− human airway epithelial cells; type: cell-based
Method: These experiments were conducted in CFBE41o− cells stably expressing either wt-CFTR or ΔF508-CFTR and in parental (non-transfected ΔF508/ΔF508) CFBE41o− cells. To increase apical membrane expression of ΔF508-CFTR, cells were grown at 27° C. for 36 hours in accordance with methods set forth in Example 5. […] Parental CFBE41o− cells, and CFBE41o− cells stably expressing either wt-CFTR or ΔF508-CFTR were incubated at 27° C. in a CO2 incubator in the absence of antibiotics. Vehicle or PA14 bacteria (5×10^8 CFU/ml) were added to the apical side of the monolayers.
Monolayers grown on Transwell (6.5 mm diameter) or Snapwell (12 mm diameter) permeable supports, as described in Example 1, were mounted in an Ussing-type chamber (Jim's Instruments; Iowa City, Iowa or Physiologic Instruments; San Diego, Calif.) and bathed in solutions, pH 7.4 maintained at 37° C. and stirred by bubbling with 5% CO2/95% air. Short circuit current (Isc) was measured by voltage-clamping the transepithelial voltage across the monolayers to 0 mV with a voltage clamp (model VCC MC6, Physiologic Instruments, San Diego, Calif.). Current output from the clamp was digitized by an analog-to-digital converter (iWorx; Dover, N.H.). Data collection and analysis were done with LabScribe v1.6 Software (iWorx; Dover, N.H.). Stimulated Isc was measured after addition of 100 μM CPT-cAMP (Calu-3 and MDCK cells) or 20 μM forskolin (wt-CFTR CFBE41o− cells) to the apical and basolateral bath solution or 50 μM genistein (ΔF508-CFTR CFBE41o− cells) to the apical bath solution. Net stimulated Isc (ΔIsc) was calculated by subtracting the baseline Isc measured before stimulation from the peak Isc measured after stimulation. Glybenclamide (200 μM) was added to the apical bath solution to inhibit CFTR-mediated Isc.
CFBE41o− cells were bathed in solutions with a basolateral-to-apical Cl− gradient in the presence of amiloride (100 μM) in the apical bath solution to inhibit Na+ absorption through the epithelial Na+ channel (ENaC). […]

wt-CFTR = test: Cell-surface biotinylation: apical membrane expression of wt-CFTR in canine (MDCK) cells; type: cell-based; settings: purified protein
Method: In these experiments two human cell lines endogenously expressing CFTR, Pgp, BCRP and MRP2, and polarized canine and rat cells stably expressing wild-type (wt)-CFTR and/or Pgp, were contacted with a pelleted fraction of either P. aeruginosa strain PA14 or eight different clinical isolates. Apical membrane expression of CFTR, Pgp, and MRP2 was measured by cell-surface biotinylation. Epithelial cells were then lysed and biotinylated proteins were isolated, separated and amounts of apical membrane expression of CFTR, PgP and MRP2 were determined.
Epithelial cell cultures were grown on Transwell permeable growth supports (24 mm diameter, 0.4 μm pore size; Corning Corporation, Corning, N.Y.: #3412). Apical membrane expression of CFTR, Pgp, MRP1, BCRP and MRP2 was measured by cell-surface biotinylation as described by Lisanti, et al. (J. Cell Biol. 1989 109:2117-2127) and Swiatecka-Urban et al. J. Biol. Chem. 2002 277(42):40099-105).
MDCK cells stably expressing GFP-wt-CFTR or GFP-ΔF508-CFTR fusion proteins were established and maintained in culture in a 5% CO2/95% air incubator at 37° C. in MEM complete medium containing 50 U/ml penicillin, 50 μg/ml streptomycin, 2 mM L-glutamine, 10% FBS, and 150 μg/ml G418. Addition of GFP to the N-terminus of CFTR has no effect on CFTR localization, trafficking, function as a Cl channel, or on its degradation. MDCK cells were seeded on Transwell permeable supports (0.2×10^6 on 6.5 mm and 24 mm diameter, 0.4 μm pore size; Corning Corporation; Corning, N.Y.) and grown in culture at 37° C. for 7-10 days. Under these conditions, MDCK cells become polarized. Sodium butyrate (5 mM; Sigma-Aldrich; St. Louis, Mo.) was added to the MDCK cell culture medium 16-18 hours before experiments to stimulate CFTR expression.
In these experiments, apical membrane proteins were biotinylated at 4° C. using a derivative of biotin (EZ-Link™ Sulfo-NHS-LC-Biotin: Pierce). […] Biotinylated CFTR, Pgp, BCRP and MRP-2 were analyzed by Western blotting using antibodies against CFTR, Pgp, and MRP-2, respectively. […]

MDCK-GFP-MDR1 cells = type: cell-based, canine; settings: pre-treatment 60 min, then Dox (0, 1, 3, 5 or 10 μM) for 4 hrs at 37 C; buffer ˜5%
Source text: The studies above indicate that CIF reduces the plasma membrane expression of P-glycoprotein (i.e. Pgp or multidrug resistance protein (MDR)), MRP2, BCRP and other members of the ABC transmembrane protein family, whose functions include the transport of small molecules across cell membranes. More specifically, members of the ABC transporter family function by preventing therapeutics including but not limited to anti-cancer therapies and antibiotics from accumulating in the central nervous system, and by conferring the observed “drug resistance” of numerous cancers. […]
MDCK-GFP-MDR1 cells, MDCK-C7 cells stably transfected with GFP-Pgp under the transcriptional control of human MDR1 promoter as described by Maitra et al. (Biochem J 2001 355:617-624) were used in these studies. […] Cell viability was then assessed using the CellTiter 96Queous One Solution Cell Proliferation assay. After incubating for 4 hours at 37° C., the absorbance was determined at 490 nm.

[2] = Epoxide hydrolase activity assay, degradation of (S)-NEPC; type: biochemical; settings: purified protein; 60 minute incubation period
Method: To assess whether Cif acts as an epoxide hydrolase, its ability to degrade the synthetic epoxide hydrolase substrate (2S,3S)-trans-3-Phenyl-2-oxiranylmethyl 4-nitrophenyl carbonate ((S)-NEPC) was assessed. This assay measures the production of the product p-nitrophenol, which is yellow in color and absorbs maximally at 405 nm.
Purified PA2934-His was assayed for its ability to degrade the epoxide hydrolase synthetic substrate (2S,3S)-trans-3-Phenyl-2-oxiranylmethyl 4-nitrophenyl carbonate ((S)-NEPC) (Sigma, St. Louis, Mo.). […] Degradation of (S)-NEPC was measured as an increase in absorbance at OD405 utilizing a Molecular Devices SpectraMax M2 plate reader. Reactions were normalized to controls lacking enzyme, accounting for spontaneous hydrolysis of the substrate.

With `O=C(O)c1ccc(/C=C2\SC(=S)N(c3cccc(C(F)(F)F)c3)C2=O)cc1` [CFTRinh-172, reference compound] as the molecule, how does the “inhibition of forskolin stimulated CFTR-mediated Cl− ion secretion” value [1] read?
The value was about 50 μA/cm^2.

B1: PA2934-His: purified C-terminal penta-histidine tagged PA2934 (Cif, CFTR inhibitory factor; SEQ ID NO:1) expressed in E. coli (protein, listed as Pseudomonas aeruginosa)
chain: MILDRLCRGLLAGIALTFSLGGFAAEEFPVPNGFESAYREVDGVKLHYVKGGQGPLVMLVHGFGQTWYEWHQLMPELAKRFTVIAPDLPGLGQSEPPKTGYSGEQVAVYLHKLARQFSPDRPFDLVAHDIGIWNTYPMVVKNQADIARLVYMEAPIPDARIYRFPAFTAQGESLVWHFSFFAADDRLAETLIAGKERFFLEHFIKSHSSNTEVFSERLLDLYARSYAKPHSLNASFEYYRALNESVRQNAELAKTRLQMPTMTLAGGGHGGMGTFQLEQMKAYADDVEGHVLPGCGHWLPEECAAPMNRLVIDFLSRGR
modifications: C-terminal penta-His tag
With B1 as the molecule, how does the “effect on apical expression of CFTR” value (wt-CFTR) read?
The value was “significantly decreases”.

And the “reduction of apical expression of CFTR” value (wt-CFTR; 60 minutes after treatment)?
The value was over 60%.

And the “reduction of apical expression of CFTR” value (wt-CFTR; at 90 minutes)?
Its value is over 70%.

What about the “reduction in cell viability” value (MDCK-GFP-MDR1 cells) of the same molecule?
The value was about 25%.

What about the “epoxide hydrolase activity (degradation of (S)-NEPC, absorbance at 405 nm)” value [2] of the same molecule?
Its value is “capable of degrading this compound in a protein concentration dependent manner”.

And the “inhibition of forskolin stimulated CFTR-mediated Cl− ion secretion” value ([1]; WT-CFBE cells, added to apical face, 50 μg PA2934-His, CFTRinh-172 5 μM)?
The value was about 30 μA/cm^2.

And the “reduction of CFTR Cl− currents” value ([1]; WT-CFBE cells, relative to CFTRinh-172-sensitive current)?
Its value is “approximately 60%”.
